# Source: IntAct's records for PubMed 25946333
# What was measured:
# nemp1_mouse Nemp1 [1] = molecular target: T1, nemp1_mouse Nemp1 (UniProt Q6ZQE4)
# T1 sequence: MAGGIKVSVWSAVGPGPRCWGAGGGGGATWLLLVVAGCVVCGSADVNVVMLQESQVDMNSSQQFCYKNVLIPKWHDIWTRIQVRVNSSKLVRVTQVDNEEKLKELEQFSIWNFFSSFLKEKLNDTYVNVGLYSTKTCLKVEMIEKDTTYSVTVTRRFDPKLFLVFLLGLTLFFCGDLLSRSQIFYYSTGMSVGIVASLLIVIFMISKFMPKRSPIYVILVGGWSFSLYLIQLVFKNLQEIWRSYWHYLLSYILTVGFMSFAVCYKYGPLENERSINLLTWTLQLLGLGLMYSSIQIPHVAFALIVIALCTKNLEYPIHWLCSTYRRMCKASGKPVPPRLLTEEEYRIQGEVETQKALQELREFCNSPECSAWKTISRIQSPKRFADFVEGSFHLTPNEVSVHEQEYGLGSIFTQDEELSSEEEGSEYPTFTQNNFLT
# nemp1_mouse Nemp1 [2] = molecular target: T1, nemp1_mouse Nemp1; remark: listed apart in the source
substance,measurement,setting,value
GTP-binding nuclear protein Ran (Mus musculus) (from UniProt P62827) T42A,effect of a mutation on the interaction,nemp1_mouse Nemp1 [1],disrupting interaction strength
GTP-binding nuclear protein Ran (Mus musculus) (from UniProt P62827) Q69L,effect of a mutation on the interaction,nemp1_mouse Nemp1 [1],with no effect
GTP-binding nuclear protein Ran (Mus musculus) (from UniProt P62827) T24N,effect of a mutation on the interaction,nemp1_mouse Nemp1 [2],decreasing interaction strength
same,effect of a mutation on the interaction,nemp1_mouse Nemp1 [1],disrupting interaction strength
